According to paper PMC8752827 (Nature Communications, 2022):
Where no end group is shown, it is not given here.

Tests used:
Conditions in all cases: both partners purified
human IL-6 = human IL-6 (Homo sapiens, UniProt P05231); test: pull-down; antibody fragment captured by RGS-tag on AC-resin co- or post-translationally, washed, treated with neutral buffer or 2 M GdnHCl/100 mM DTT then 1 M GdnHCl/10 mM GSH (or fully refolded from 6 M GdnHCl); incubated with 50 uL of 10 uM antigen for 3 h at RT; washed; eluted by boiling or by PreScission cleavage; SDS-PAGE
Sequence of human IL-6 (P05231 30-212): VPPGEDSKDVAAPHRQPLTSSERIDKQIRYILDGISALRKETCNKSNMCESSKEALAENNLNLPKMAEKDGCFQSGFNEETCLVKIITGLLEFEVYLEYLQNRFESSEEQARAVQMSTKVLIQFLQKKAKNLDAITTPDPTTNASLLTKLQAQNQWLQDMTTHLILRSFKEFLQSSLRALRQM

Human serum albumin = target: T1, Human serum albumin (Homo sapiens, UniProt P02768); test: as above
T1 construct: also called HSA

Trypsin = Trypsin (UniProt P00760 18-246); test: enzyme inhibition assay (trypsin-inhibitory assay); 100 pM trypsin pre-incubated with peptide (twofold dilution series from 4 nM to 3.9 pM) for 3 h at room temperature in 0.1 M NaCl, 10 mM CaCl2, 0.005% Triton X-100, 0.1 M Tris-HCl pH 8.0; residual activity on Boc-Q-A-R-AMC (10 uM); Ki from IC50 by a tight-binding equation, Km 12 uM
Sequence of Trypsin (P00760 24-246): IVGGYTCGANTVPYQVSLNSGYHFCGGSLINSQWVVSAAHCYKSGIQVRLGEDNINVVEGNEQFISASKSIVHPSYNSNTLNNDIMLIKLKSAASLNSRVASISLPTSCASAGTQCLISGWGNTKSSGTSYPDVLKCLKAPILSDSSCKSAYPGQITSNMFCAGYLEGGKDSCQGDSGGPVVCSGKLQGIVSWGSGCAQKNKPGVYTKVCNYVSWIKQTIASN

binding result (human IL-6) | binding result (Human serum albumin) | Binder | other results
binds |  | anti-IL-6 Fab (Fab, V domains shown) VH: EVQLQESGPGLVKPSQTLSLTCTVSGGSITTRYYAWSWIRQPPGKGLEWMGVIDYDGDTYYSPSLKSRTSISWDTSKNQFSLQLSSVTPEDTAVYYCARDPDVVTGFHYDYWGQGTQVTVSS VL: QAVLTQPPLVSGTPGQTVTISCAGANNDIGTYAYVSWYQQLPGTAPKLLIYKVTTRASGIPSRFSGSKSGNTASLTISGLQSEDEADYYCASYRNFNNAVFGRGTHLTVL | 
 | binds | anti-HSA scFv (scFv, V domains shown) VH: EVQLLESGGGLVQPGGSLRLSCAVSGIDLSNYAINWVRQAPGKGLEWIGIIWASGTTFYATWAKGRFTISRDNSKNTVYLQMNSLRAEDTAVYYCARTVPGYSTAPYFDLWGQGTLVTVSS VL: DIQMTQSPSSVSASVGDRVTITCQSSPSVWSNFLSWYQQKPGKAPKLLIYEASKLTSGVPSRFSGSGSGTDFTLTISSLQPEDFATYYCGGGYSSISDTTFGGGTKVEIK | 
 | binds | anti-HSA Fab (Fab, V domains shown) VH: EVQLLESGGGLVQPGGSLRLSCAVSGIDLSNYAINWVRQAPGKGLEWIGIIWASGTTFYATWAKGRFTISRDNSKNTVYLQMNSLRAEDTAVYYCARTVPGYSTAPYFDLWGQGTLVTVSS VL: DIQMTQSPSSVSASVGDRVTITCQSSPSVWSNFLSWYQQKPGKAPKLLIYEASKLTSGVPSRFSGSGSGTDFTLTISSLQPEDFATYYCGGGYSSISDTTFGGGTKVEIK | 
binds |  | anti-IL-6 scFv (scFv, V domains shown) VH: QVQLVESGGGLVQPGGSLRLSCAASGFNFNDYFMNWVRQAPGKGLEWVAQMRNKNYQYGTYYAESLEGRFTISRDDSKNSLYLQMNSLKTEDTAVYYCARESYYGFTSYWGQGTLVTVSG VL: GIQMTQSPSSLSASVGDRVTITCQASQDIGISLSWYQQKPGKAPKLLIYNANNLADGVPSRFSGSGSGTDFTLTISSLQPEDFATYYCLQHNSAPYTFGQGTKLETG | 
 |  | SGSDGGVCPKILKKCRRDSDCPGACICRGNGYCGGAG (disulfide (positions not given here); also: three disulfides, pairing not given here, fused to RGS, also called wtMCoTI-RGS; wtMCoTI) [wild-type MCoTI-II fused to RGS] | fold Ki against prmMCoTI (Trypsin): ~4 fold
